Reference: patent publication US20030105024A1 (STATE OF OREGON, published 2003)
No end group written: not given here.

T1: mouse αMSH (MC-1) receptor (mouse) (UniProt Q01727)
T1 sequence: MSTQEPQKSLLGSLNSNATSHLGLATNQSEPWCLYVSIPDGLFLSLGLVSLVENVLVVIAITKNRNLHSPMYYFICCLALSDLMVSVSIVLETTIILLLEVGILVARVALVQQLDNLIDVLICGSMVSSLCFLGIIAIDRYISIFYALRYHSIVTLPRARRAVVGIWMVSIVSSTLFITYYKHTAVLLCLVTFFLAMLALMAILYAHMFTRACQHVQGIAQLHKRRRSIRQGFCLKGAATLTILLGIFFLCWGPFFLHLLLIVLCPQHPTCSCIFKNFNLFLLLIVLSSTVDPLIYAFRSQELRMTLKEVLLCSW

T2: human melanocortin 4 receptor (human, UniProt P32245 1-332)
T2 chain: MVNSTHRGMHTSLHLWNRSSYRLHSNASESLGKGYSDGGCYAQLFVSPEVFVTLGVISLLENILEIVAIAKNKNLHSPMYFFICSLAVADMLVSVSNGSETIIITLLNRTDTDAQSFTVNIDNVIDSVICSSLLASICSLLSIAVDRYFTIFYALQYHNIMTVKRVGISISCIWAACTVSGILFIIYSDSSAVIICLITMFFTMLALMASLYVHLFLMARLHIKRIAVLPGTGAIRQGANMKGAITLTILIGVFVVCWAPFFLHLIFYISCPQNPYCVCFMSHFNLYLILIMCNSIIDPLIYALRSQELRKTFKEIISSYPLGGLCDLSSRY

T3: murine agouti peptide (mouse, UniProt Q03288 23-131, limits assumed)
T3 construct: Preparation was not homogeneous; also called endogenous mouse agouti peptide
T3 sequence (looked up): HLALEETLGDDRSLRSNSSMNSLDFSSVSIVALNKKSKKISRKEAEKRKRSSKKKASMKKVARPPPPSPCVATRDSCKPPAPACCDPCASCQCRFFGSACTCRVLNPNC

B1: rat melanocortin-3 receptor (receptor)
chain: MNSSCCPSSSYPTLPNLSQHPAAPSASNRSGSGFCEQVFIKPEVFLALGIVSLMENILVILAVVRNGNLHSPMYFFLLSLLQADLLVSLSNSLETIMIVVINSDSLTLEDQFIQHMDNIFDSMICISLVASICNLLAIAVDRYVTIFYALRYHSIMTVRKALSLIVAIWVCCGICGVMFIVYSESKMVIVCLITMFFAMVLLMGTLYIHMFLFARLHVQRIAALPPADGLAPQQHSCMKGAVTITILLGVFIFCWAPFFLHLVLIITCPTNPYCICYTAHFNTYLVLIMCNSVIDPLIYAFRSLELRNTFKEILCGCNGMNVG
notes: Stably expressed in human 293 cells from pcDNA/neo I; also called rat MC-3 receptor; rat MC3-R
B2: γ-melanocyte stimulating hormone (peptide, UniProt P01189 77-88, looked up)
peptide: YVMGHFRWDRFG
notes: domain: γMSH; Printed without an index; also called γMSH; γ-MSH

What was measured:
[1] = target: B1; test: cell-based or functional assay
[2] = target: T1, mouse αMSH (MC-1) receptor (mouse); test: cell-based or functional assay
[3] = target: T2, human melanocortin 4 receptor; test: cell-based or functional assay
[4] = target: human MC-3 receptor (human) (UniProt P41968); test: cell-based or functional assay
Sequence of human MC-3 receptor (human) (P41968 whole entry): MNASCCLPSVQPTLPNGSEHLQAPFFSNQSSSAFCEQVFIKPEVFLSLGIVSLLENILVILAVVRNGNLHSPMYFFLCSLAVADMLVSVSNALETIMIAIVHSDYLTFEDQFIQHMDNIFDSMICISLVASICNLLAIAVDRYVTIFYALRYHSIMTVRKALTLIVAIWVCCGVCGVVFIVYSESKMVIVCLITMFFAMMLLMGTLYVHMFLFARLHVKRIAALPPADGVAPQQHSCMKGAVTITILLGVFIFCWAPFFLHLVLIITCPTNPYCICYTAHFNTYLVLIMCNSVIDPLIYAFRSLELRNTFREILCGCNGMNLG

[5] = target: mouse MC-5 melanocortin receptor (mouse) (UniProt P41149); test: cell-based or functional assay
Sequence of mouse MC-5 melanocortin receptor (mouse) (P41149 whole entry): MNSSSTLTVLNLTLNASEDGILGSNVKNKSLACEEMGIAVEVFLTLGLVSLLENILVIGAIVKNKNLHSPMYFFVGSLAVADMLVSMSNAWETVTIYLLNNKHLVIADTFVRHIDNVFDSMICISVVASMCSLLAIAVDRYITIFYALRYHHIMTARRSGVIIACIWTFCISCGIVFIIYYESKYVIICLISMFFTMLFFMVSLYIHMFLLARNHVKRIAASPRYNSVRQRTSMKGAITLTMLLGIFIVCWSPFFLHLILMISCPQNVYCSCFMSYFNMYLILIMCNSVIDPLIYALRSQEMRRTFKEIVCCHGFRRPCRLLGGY

[6] = target: B1; test: competition with 125I-NDP-MSH on suspended 293 cells expressing rat MC-3 receptor
[7] = target: T3, murine agouti peptide; test: competition with 125I-[Nle^4, D-Phe^7]α-MSH on 293 cells expressing rat MC-3 receptor; results not shown

**Q.** For “γ2-MSH (from UniProt P01189 77-88) (peptide)”, which Ec50, intracellular cAMP [1] is on record?
**A.** Its Ec50, intracellular cAMP is 3 nM.

**Q.** Which results are given for “Nle^4, D-Phe^7-αMSH (from UniProt P01189 138-150) (peptide)”?
**A.** EC50, intracellular cAMP [2]: 0.028 nM; Ec50, adenylate cyclase activity [3]: 11 pM

**Q.** For “SHU9119, Ac-Nle^4-cyclo(Asp^5, D-Nal(2)^7, Lys^10) αMSH-(4-10)-amide (from UniProt P01189 141-147) (peptide)”, which pA2 (method of Schild) [4] is on record?
**A.** The pA2 (method of Schild) was 8.3.

**Q.** How did the EC50, adenylate cyclase / cAMP-dependent β-galactosidase [5] turn out when “βMSH (from UniProt P01189 217-234) (peptide)” was run?
**A.** Its EC50, adenylate cyclase / cAMP-dependent β-galactosidase is 5 nM.

**Q.** How did the Ec50, intracellular cAMP [1] turn out when “desacetyl-αMSH (from UniProt P01189 138-150) (peptide)” was run?
**A.** Its Ec50, intracellular cAMP is 8 nM.

**Q.** SYSMEHFRWGKPV (peptide, UniProt P01189 138-150, looked up, ends and bridges not checked, domain: αMSH; also called αMSH; α-MSH) [α-melanocyte stimulating hormone] was tested. Which “Ec50, intracellular cAMP” value [1] did it give?
**A.** Its value is 4 nM.

**Q.** What about the Ki [6] of the same molecule?
**A.** Its Ki is ~100 nM.

**Q.** For YVMGHFRWDRFGRRNSSSSGSSGAGQ (peptide, UniProt P01189 77-102, looked up, ends and bridges not checked) [γ3-MSH], which Ec50, intracellular cAMP [1] is on record?
**A.** The Ec50, intracellular cAMP was 6 nM.

**Q.** Does B1 bind [7]?
**A.** Result: binds

**Q.** For SYSMEHFRWGKPVGKKRRPVKVYPNGAEDESAEAFPLEF (peptide, UniProt P01189 138-176, looked up) [adrenocorticotropic hormone], which EC50, intracellular cAMP [2] is on record?
**A.** Its EC50, intracellular cAMP is 8 nM.

**Q.** And the Ec50, intracellular cAMP [1]?
**A.** The Ec50, intracellular cAMP was 4 nM.

**Q.** What about the Ec50, adenylate cyclase activity [3] of the same molecule?
**A.** Its Ec50, adenylate cyclase activity is 680 pM.

**Q.** For YVMGHFRWDRF (peptide, UniProt P01189 77-87, looked up, ends and bridges not checked) [γ1-MSH], which Ec50, intracellular cAMP [1] is on record?
**A.** Its Ec50, intracellular cAMP is 3 nM.

**Q.** B2 was tested. Which Ki [6] did it give?
**A.** The Ki was ~50 nM.

**Q.** What does the source list for MEHFRWG (peptide, UniProt P01189 141-147, looked up, domain: ACTH4-10) [ACTH4-10]?
**A.** Ec50, intracellular cAMP [1]: 100 nM; Ec50, adenylate cyclase activity [3]: > 100000 pM
